Results published in the nanobody polyreactivity screen of Harvey et al. (2022).

Assay: yeast display, Sf9 membrane polyspecificity reagent, FACS + sequencing; frameworks hold sequencing errors
Summary of the method: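 Synthetic nanobody libraries on Saccharomyces cerevisiae BJ5465 were galactose-induced for 36–48 hours, stained 1 hour at 4 °C with 10% biotinylated, detergent-solubilized Sf9 membrane reagent and enriched on streptavidin microbeads. FACS then separated cells into low and high (top ~1%) gates by anti-HA (expression) and streptavidin (reagent binding) fluorescence. Genes were colony-PCR amplified, MiSeq 2 × 250 sequenced and CDR-length filtered. A clone's polyreactivity label is that of its gate of origin.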

Sequence | polyreactivity (PSR sort gate)
QVQLVESGVGLVQAGGSVRLSCAASGSIFSINAMGWYRQAPGKERELVAAISASGGSTYYADSVKGRFTISRDNAKNTVYLQMNSLKPEDTAVYYCAVYTHDRFSRYDQGDYWGQATQVTVSS | low polyreactivity
QVQLVESGGGLVQEGGSLRLSCAASGRTIVSNAMGWYRQAPGKERELVAAIRYGGGRTYYADSVKGRFTISRDNAKNTVYLQMNSLKPEDTAVYYCAKRSVGGTGYYWGQGTQVTVSS | high polyreactivity
QVQLVESGGGLVQAGGSLRLSCAASGSTFWYYAMGWYRQAPGKEREFVAAINRSGASTYYADSVKGRFTISRDNAKNTVYLEMNSLKPEDTAVYYCAAAVYLQYLDDPTYGYWGQGTQVTVSS | high polyreactivity
QVQLVESGGGLVQAGGSLRLSCAASGSIFDDYAMGWYRQAPGKERELVAAISWSGGRTYYADSVKGRFTISRDNAKTTVYLQMNSLKPEDTAVYDCAATTGVRSRRYYYWGQGTQVTVSS | low polyreactivity
QVQLVESGGGLVQAGGSLRLSCAASGFIFGGYVMGWYRQAPGKERELVAAITWSGGSTYYADSVKGRFTISRDNAKHTVYVQLNSQKREDTAVYYCNSRVPARLWRWSPYPVDYWGQGTQVTLSS | high polyreactivity
QVQLVESGGGLVQAGGSLRLSCAASGFTFSTYAMGWYRPAPGKERELGAAISRSGGSTYYADSVKGRFTISRDNAKNTVYLQMNSLKPEDTAVYYCAADGLRRESSYYYWAQGTQVTVSS | high polyreactivity
QVQLVESGGGLVQAGGSLRLSCPASASNYAAYTMAWYRQAPGKERECVAAITSGGSTNYADSVKGRFTISRDNAKNTVYLQMNSLKPEDTAVYYCAAEDLNYYFWRSLWFGIYDDWGQGTQVTVSS | low polyreactivity
QVQLVDSGGGLVQAGCSIRITCSATGITFVANTKGWYRQEPVKERELVDTITSSGGSTYYADSVKGRFTISRDNAKNSVYLQMNSLKPEDTAVFYCAASDLRYRGNYVYLPSEYWGQGSQVTVSS | low polyreactivity
QVQLVESGGGLVQAGGSLRLSCAASGSIFENNAMGWYRQAPGKERELVAAISSDDTTNYADSVKGRFTISRDNAKNTVYLQMNSLKPEDTAVYYCATDYDVYGYPYDYGYWGQGTQVTVSS | low polyreactivity
QVQLVESGGGLVQAGGSLRLSCAASGITFVLYAMGWYRQAPGKEREFVAAITNSGGSTYYADSVKGRFTISRDNAKNTVYLQMNSLKPEDTAVYYCAATRRRYRPYEYWGQGTQVTVSS | high polyreactivity
QDQLVESGRGLVQAGGNLRLSCAPSRSIFTTYAMGWYRQARGKERHFVATITSSDSTNYADSVKGRFTISRDNAKNTVYLQMNSLNPEETAVYYCNAGGDRTVSVAWYSADDFWGQGTQVTVSS | low polyreactivity
QVQLVESGGGLVQAGGSLRLSCAASGSILWYNGLGWYRQAPGKEMELVAAITSGGSTNYADSVKGRFTISRDNAKNTVYLQMNSLKQEDTAVYYCATRHSKYGYEYDYWGQGTQVTVSS | low polyreactivity
QVQLVESGGGLVQAGGSLRLSCAASGFTFYYNAMGWYRQAPGKERELVATISGSGGRTYYADSVKGRFTISRDNAKNTVYLQMNSLKPEDTAVYYCAARYVWSRYGYWGQGTQVTVSS | high polyreactivity
QVQLVESGGGLVQAGGSLRLSCAASGRIFTYYTMGWYRQAPGKERELVAAISWSGGRTYYADSVKGRFTISRDNAKNTVYLQMNSLKPEDTAVYYCARLQDSRESPWRGYYWGQGTQVTVSS | high polyreactivity
QVQLVESGGGLVQAGGSLRLSCAASGFIFHYYAMGRYRQAPGKERELVAAISWNGGSTNYSDSVKGRFTISRDNAKNTVYLQMNSLKPEDTAVYYCATTDPYYDVDYWGQGTQVTVSS | low polyreactivity
QDQLVESGGGLVQAGGSLRLSCAASGRTFIRNAMGWYRPAPGKERELVAAISRSGGRTYYADSVKGRFTISRDNAKNTVYLQMNSLKPEDTAVYYCAAGSYQRYAFDYWGQGTQVTVSS | high polyreactivity
QVQLVESGGGLVQAGGSLRLSCAASGSTFYDNAMGWYRQAPGKERELVASIRSGGSTKYADSVKGRFTISRDNAKNTVYLQMNSLKPEDTAVYYCAADVHFVKDPPVKSIYGKFYYWGQGTQVTVSS | low polyreactivity
QVQLVESGVGLVQAGGSLRLSCAASGSIFYDNAMGWYRQAPGKERELVAVITVSGDSTYYADSVKGRFTISRDNAKNTVYLQMNSLKPEDTAVYYCNTDAISGSHFWRYITFGYLDDYWGQGTQVTVSS | low polyreactivity
QVQLVESGGGLVQAGGSLRLSCAASGSIFQRYAMGWYRQAPGKEREFVAAISGRGGSTYYADSVKGRFTISRDNAKNTVYLQMNSLKPEDTAVYYCADDSSRFYGRPRYYYWGQGTQVTVSS | high polyreactivity
QVQLVESGGGLVQAGGSLRLSCAASGSIFDYYAMGWYRQAPGKERELVATISGGGGTTYYADSVKGRFTISRDTAKNTVYLQMNSLKPEDTAVYYCAADSLGYNYWGQGTQVTVSS | low polyreactivity
QVQLVESGGGLVQAGGSLRLSCAASGIIFGTYAMGWYRQAPGKERELVAVITSGAGRTYYADSVKGRFTISRDNAKNTVYLQMNSLKPEDTAVDYCAARVWYPRYDYWGQGTQVTVSS | high polyreactivity
QVQLVDSGGGLVQAGGSLRLSCAASGSIFVFYDMGWYSQAPGKEREMVATISSGGGGTYYTDSVKGRFTISRDNAKNTVYLQMNSLKPEDTAVYYCAAEGDKYGKGYGYWGQGTQVTVSS | low polyreactivity

Sequence | polyreactivity (PSR sort gate)
QVQHVDSGGGLVQAGGSLRLSCAASGSSFGTYDMGWYRQAPGKERELVARISGGGSTYYADSVKGRLTISRDNAKNTVYFQMNRLKPEDTAVYYCNVRKWAYWSHAFIYTYWGQGTQVTVSS | high polyreactivity
QVQLVESGGGLVEAGGSLRLSCEASGFNFSRYVMGWYRQAPGKERELVAVISYRGGSTYYADSVKGRFTISRDYAKITVYLQMNSLKPEDTAVYYCNADTIPDGEDRYDYWGQGTQVTVSS | low polyreactivity
QVQLQESGGGLVQAGGSLRLSCAATGTIFTDRFMGWYLQAPGKERELVACISPGTSTNYADSVKGRFTISRDNAKNTVYLKINSLKPEDTAVYYCAADWSTGNNLPYWGQGTQVTVSS | high polyreactivity
QVQLVESGGGLVQAGGSLRLSCAASGSTLDFYAMGWYRPAPGKERELVAAITWRGGSTYYADSVKGRFTISRDNAKNTVYLQMNCLKPEDTAVYYCAAKSYWLKSQYYSWGQGTQVTVSS | high polyreactivity
QVQLVESGGGLVQAGGSLRLSCAASGRTFPYNAMGWYRQAPGKEMELVAVISSSGGSTYYADSVKGRFTISRDNAKNTVYLQMNSLKPEDTAVYYCNTRPYYYRRPGYRYSGYDYWGQGTQVTVSS | high polyreactivity
QVQLVESGGGLVQAGGSLRLSCAASGFIFWSYAMGWYRQAPGKERELVAAITRRGGSTYYADSVKGRFTISRDNAKNTVYLQMNSLKPEDTAVYYCNARRTYNGPVYPYYSGVNYWGQGTQVTVSS | high polyreactivity
QVHLVESGGGLVQAGGSLRLSSAASGRIFSFNAMGWYREAPGKERELVAAISWSNGSTFYADSVKGRFTISRDNAKNTVYLQMNSLKPEETAVYYCATGFPHPKRNVNRRNYWGQGTQVTVSS | high polyreactivity
QVQLVESGGGLVQAGGSLRLSCAASGIIFGGNVMGWYRQAPGKERELVAAISGTGDNTYYADSVKGRFTISRDNAKNTVYLQMNSLKPEDTAVYYCNTVYYGWPRRYGYWGQGTQVTVSS | high polyreactivity
QVQLVESGGGLVQAGGSLRLSCAASGSTFSDNAMGWYRQAPGKERELVAAINETGGSTYYADSVKGRFTISRDNAKNTVYLQMNSLKPEDTAVYYCNADIDPYGATYAIEYDYWGQGTQVTVSS | low polyreactivity
QVQLVESAGGIVQAGGSLRLSCAASGFTFSRYAKGWNRPEPGKEREWVAAMTSSGGSTYYADSVKGRFTISRDNAKNTVYLQMNSLKPEDTAVYYCNARASGRTYRVDYWGQGTQVTVSS | high polyreactivity
QVQLVESGGGLVQAGGSLRLSCAASGFIFWYNAMGWYRQAPGKERELVAVISTSGTITYYADSVKGRFTISRDNAKNTVYLQMNSLKPEDTAVYYCAARYYQRANGFGYWGQGTQVTVSS | low polyreactivity
QVQLQESGGGLVQAGGSLRLSCAASGSIFVSVTMGWYRQAPGKERELGASIGRGSTTNHADSVKGRFTISRDNAKNIVYLLMNSLKPEDTAVYYCAALESYGKYHGYWGQGTLVTVSS | low polyreactivity
QVQLVESVGGLVQAGGSLRLSSAASGRTSWYYAMGWYRQAPGKERELVATITRTTGSTYYADSVKGRFTISRDNAKNTVYLQMNSLKPEDTAVYYCDRLYYFNGDYWGLGTQVTVSS | high polyreactivity
QVQLVESGGGLVQAGGSLRLSCAASGRTLAKNAMGWYRQAPGKERELVAAISRRGGSTYYADSVKGRFTISRDNAKNTVYLQMNSLKPEDTAVYYCARASRQGYYQLSYDEFDYWGQGTQVTVSS | high polyreactivity
QVQLVESGGGLVQAGGSLRLSCAASGSIFWNNAMGWYRQAPGKEREFVATITWSGDSTYYADSVKGRFTISRDNAKNTVYLQMNSLKPEDTAVYYCAALLDYSVADLYSHHVSRYYYWGQGTQVTVSS | low polyreactivity
QVQLVESGGGLVQAAGSLRLSCAASGRTFVFYAMGWYRQAPGKERELVAAISDGDRTNYADSVKGRFTISRDNAKNTVYLQMNSLKPEDTAVYYCAADREFWWAVVYTYEYYYWGQGTQVTVSS | low polyreactivity
QVQLEESGGGLVQAGGSLRLICAASGCIFEYNAMGWSRQAPRKEREFVAAINNSGGRTYYADSVKGRFTISRDNANNTVYLQMNSLKPEDTAVYYCAVYSYYRRTYRREMDYWGQGTQVTVSS | high polyreactivity
QVQLVESGGGLVQAGGSLRLSCAASGLIFRYYAMGWYRQAPGKERELVAAIRRGGSTYYADSVKGRFTISRDNAKNTVYLQMNSLKPEDTAVYYCAADSYYWRYEYDYWGQGTQVTVSS | high polyreactivity
QVQLVESGGGLVQAGGSLRLSCAASGGTFTVNAMGLYRQAPGKERELVAAITWDGGTTYYADSVKGRFTISRDNAKNTVYLQMNSLKPEDSAVYYCAAEVDYSAFDYWGQGTQVTVSS | low polyreactivity
QVQLEESGGGLVQAGGSLRLSCAASGFILTGNVMGWYRQAPGKEREFVAGISRSGGTYYADSVKGRFTISRDNAKNTVYLQMNSLKPEDTAVYYCAAKPIYYSRGYYWGQGTQVTVSS | high polyreactivity
QVQLVESGGGLVQAGGSLRLSCAASGFTFVGYAIGWYRQAPGKERDMVAAITRRGGSTYYADSVKGRFTISRDNAKNTVYLQMNSLKPEDTAVYYCNKSSYRISVPRYDYWGQGTQVTVSS | high polyreactivity
